According to patent publication US9187525B2, “Methods of treating ophthalmic diseases using NPR-B agonists” (Shire Orphan Therapies GmbH, dated 2015):
Numbered stars: 1 amine (or outer) side, 2 acyl side, 3 side chain; on linkers, the order of the positions; unused ones are H or OH. Square brackets hold non-standard residues; d marks the D form. Ends that are not written are not given here. * marks the point of attachment. AFL = (S)-2-((S)-3-amino-2-oxopyrrolidin-1-yl)-3-phenylpropanoic acid, O=C1[C@@H](N[*:1])CCN1[C@@H](Cc1ccccc1)C(=O)[*:2]; Tap(Ae) = (2S,4R)-4-(2-aminoethylamino)pyrrolidine-2-carboxylic acid, O=C([C@@H]1C[C@@H](NCCN[*:3])CN1[*:1])[*:2]; Pca = (2S,3R)-3-aminopyrrolidine-2-carboxylic acid, O=C([C@@H]1[C@H](N[*:3])CCN1[*:1])[*:2]; Pro(trans-4-NH2) = O=C([C@@H]1C[C@@H](N[*:3])CN1[*:1])[*:2]; Sni = (S)-nipecotic acid, O=C([C@H]1CCCN([*:1])C1)[*:2]; Gly(2-thienyl) = N[C@H](C(=O)O)c1cccs1; Hyp = O=C(O)[C@@H]1C[C@@H](O)CN1; d(β3hL) = CC(C)C[C@@H](N)CC(=O)O; hPhe = N[C@@H](CCc1ccccc1)C(=O)O; 2Thi = N[C@@H](Cc1cccs1)C(=O)O; NMeL = CN[C@@H](CC(C)C)C(=O)O; Chg = N[C@H](C(=O)O)C1CCCCC1; BB394 = not defined here; BB785 = not defined here; Nle = CCCC[C@H](N)C(=O)O; Octanoyl = CCCCCCCC(=O)*; Api = NC1(C(=O)O)CCNCC1; Che = not defined here; Hexanoyl = CCCCCC(=O)*; leu = not defined here; NP = not defined here; Occ = octanoic acid

T1: natriuretic peptide receptor-B (human)
T1 chain: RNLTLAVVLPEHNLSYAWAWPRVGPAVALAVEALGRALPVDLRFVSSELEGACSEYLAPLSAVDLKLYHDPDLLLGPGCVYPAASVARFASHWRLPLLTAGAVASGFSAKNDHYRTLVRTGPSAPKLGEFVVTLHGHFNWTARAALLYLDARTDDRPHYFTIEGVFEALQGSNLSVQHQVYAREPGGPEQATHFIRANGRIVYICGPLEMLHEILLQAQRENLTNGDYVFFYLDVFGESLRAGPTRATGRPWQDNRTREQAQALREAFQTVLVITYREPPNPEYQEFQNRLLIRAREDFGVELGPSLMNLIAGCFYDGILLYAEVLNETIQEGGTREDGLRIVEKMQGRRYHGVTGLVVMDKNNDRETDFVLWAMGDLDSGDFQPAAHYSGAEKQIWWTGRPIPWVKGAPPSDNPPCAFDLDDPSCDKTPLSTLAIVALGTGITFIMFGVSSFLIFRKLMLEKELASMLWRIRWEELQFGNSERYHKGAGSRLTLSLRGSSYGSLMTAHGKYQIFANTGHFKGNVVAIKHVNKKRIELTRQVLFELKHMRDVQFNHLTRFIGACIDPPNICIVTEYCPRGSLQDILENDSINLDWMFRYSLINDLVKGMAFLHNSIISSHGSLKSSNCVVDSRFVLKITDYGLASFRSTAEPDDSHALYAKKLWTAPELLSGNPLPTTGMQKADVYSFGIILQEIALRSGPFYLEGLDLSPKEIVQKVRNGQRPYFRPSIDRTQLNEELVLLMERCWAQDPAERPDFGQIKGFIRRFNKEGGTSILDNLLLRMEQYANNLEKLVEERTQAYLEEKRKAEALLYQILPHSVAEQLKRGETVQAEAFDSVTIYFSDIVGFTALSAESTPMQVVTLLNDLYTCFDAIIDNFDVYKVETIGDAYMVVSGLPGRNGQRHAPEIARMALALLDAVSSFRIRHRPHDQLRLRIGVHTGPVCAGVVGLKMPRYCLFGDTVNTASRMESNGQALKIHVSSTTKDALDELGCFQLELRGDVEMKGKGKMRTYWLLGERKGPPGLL


Target: T1, natriuretic peptide receptor-B
Assay: cell-based or functional assay

Row | Binder | EC50 group, cGMP in GTM-3 cells
1 | XXXFLLXXDRI (HELM PEPTIDE1{[O=C(CCc1ccccc1)[*:2]].[bAla].[O=C([C@H]1CCCN([*:1])C1)[*:2]].F.[dL].L.[Hyp].[meL].D.R.I.[am]}$$$$V2.0; SMILES CC[C@H](C)[C@H](NC(=O)[C@H](CCCNC(=N)N)NC(=O)[C@H](CC(=O)O)NC(=O)[C@H](CC(C)C)N(C)C(=O)[C@@H]1C[C@@H](O)CN1C(=O)[C@H](CC(C)C)NC(=O)[C@@H](CC(C)C)NC(=O)[C@H](Cc1ccccc1)NC(=O)[C@H]1CCCN(C(=O)CCNC(=O)CCc2ccccc2)C1)C(N)=O) [JAL-1669] | ≤ 15 µM
2 | [Occ][AFL][dL]L[Hyp][NMeL]DRI-NH2 [JAL-1671] | ≤ 1 µM
3 | XXFGLKLDRI (HELM PEPTIDE1{[CCCCCC(=O)[*:2]].[O=C(c1nc(N[*:1])cs1)[*:2]].F.G.L.K.L.D.R.I.[am]}$$$$V2.0; SMILES CCCCCC(=O)Nc1csc(C(=O)N[C@@H](Cc2ccccc2)C(=O)NCC(=O)N[C@@H](CC(C)C)C(=O)N[C@@H](CCCCN)C(=O)N[C@@H](CC(C)C)C(=O)N[C@@H](CC(=O)O)C(=O)N[C@@H](CCCNC(=N)N)C(=O)N[C@H](C(N)=O)[C@@H](C)CC)n1) [JAL-0713] | ≤ 15 µM
4 | [Occ][Sni]F[dL]L[Hyp][NMeL]DR[Che] (reading uncertain; also: printed as Occ-Sni-Phe-leu-Leu-Hyp-Nml-Asp-Arg-Che) [JAL-1680] | ≤ 1 µM
5 | [Occ][Sni]FLL[Tap(Ae)][NMeL]DR[Che] (not fully specified (residue 4); printed as Occ-Sni-Phe-leu-Leu-Tap(Ae)-Nml-Asp-Arg-Che; reading uncertain) [JAL-1681] | ≤ 1 µM
6 | [Occ][Sni]FLL[Hyp][NMeL]D[BB394][Che] (not fully specified (residue 4); printed as Occ-Sni-Phe-leu-Leu-Hyp-Nml-Asp-(BB394)-Che; reading uncertain) [JAL-1694] | ≤ 15 µM
7 | [Occ][Sni]FLL[Hyp][NMeL]D[BB785][Che] (not fully specified (residue 4); printed as Occ-Sni-Phe-leu-Leu-Hyp-Nml-Asp-(BB785)-Che; reading uncertain) [JAL-1697] | ≤ 5 µM
8 | [Occ][Sni][hPhe]LL[Hyp][NMeL]DRI-NH2 (not fully specified (residue 4); printed as Occ-Sni-Hfe-leu-Leu-Hyp-Nml-Asp-Arg-Ile-) [JAL-1701] | ≤ 15 µM
9 | Hexanoyl-[dA][dA]FGLKLDR[Chg]-NH2 [JAL-0718] | ≤ 15 µM
10 | [Occ][Sni]FLL[Pro(trans-4-NH2)][NMeL]VR[Che] (not fully specified (residue 4); printed as Occ-Sni-Phe-leu-Leu-Tap-Nml-Val-Arg-Che; reading uncertain) [JAL-1729] | ≤ 1 µM
11 | [Occ][Sni]FLL[Hyp][NMeL]SR[Che] (not fully specified (residue 4); printed as Occ-Sni-Phe-leu-Leu-Hyp-Nml-Ser-Arg-Che; reading uncertain) [JAL-1752] | ≤ 1 µM
12 | [Occ][Sni]FLL[Hyp][NMeL]TR[Che] (not fully specified (residue 4); printed as Occ-Sni-Phe-leu-Leu-Hyp-Nml-Thr-Arg-Che; reading uncertain) [JAL-1753] | ≤ 1 µM
13 | [Occ][Sni]FLL[Hyp][NMeL][2Thi]R[Che] (not fully specified (residue 4); printed as Occ-Sni-Phe-leu-Leu-Hyp-Nml-Thi-Arg-Che; reading uncertain) [JAL-1758] | ≤ 15 µM
14 | Octanoyl-[Sni]F[leu]L[Hyp][NMeL][Chg]R[Che] (reading uncertain; also: printed as Occ-Sni-Phe-leu-Leu-Hyp-Nml-Chg-Arg-Che) [JAL-1763] | ≤ 15 µM

Other lines, results leading:

Row | EC50 group, cGMP in GTM-3 cells | Binder
15 | ≤ 15 µM | [Occ][Sni]F[dL]L[Hyp][NMeL]D[Api][Che] (reading uncertain; also: printed as Occ-Sni-Phe-leu-Leu-Hyp-Nml-Asp-Apc-Che) [JAL-1672]
16 | ≤ 15 µM | [Occ][Sni]F[dL]L[Hyp][NMeL][NP][Che] (reading uncertain; also: printed as Occ-Sni-Phe-leu-Leu-Hyp-Nml-NP-Che) [JAL-1673]
17 | ≤ 5 µM | [Occ][Sni]F[dL]L[Pro(trans-4-NH2)][NMeL][Gly(2-thienyl)]P[Che] (reading uncertain; also: printed as Occ-Sni-Phe-leu-Leu-Tap-Nml-(BB726)-Pro-Che) [JAL-1676]
18 | ≤ 1 µM | [Occ][Sni]F[dL]L[Hyp][NMeL]D[Pca][Che] (reading uncertain; also: printed as Occ-Sni-Phe-leu-Leu-Hyp-Nml-Asp-Pca-Che) [JAL-1679]
19 | ≤ 1 µM | [Occ][Sni]FLL[Pro(trans-4-NH2)][NMeL]DR[Che] (not fully specified (residue 4); printed as Occ-Sni-Phe-leu-Leu-Tap-Nml-Asp-Arg-Che; reading uncertain) [JAL-1682]
20 | ≤ 15 µM | [Occ][Sni]FLL[Tap(Ae)][NMeL]VR[Che] (not fully specified (residue 4); printed as Occ-Sni-Phe-leu-Leu-Tap(Ae)-Nml-Val-Arg-Che; reading uncertain) [JAL-1683]
21 | ≤ 15 µM | [Occ][Sni]FLL[Hyp][NMeL]D[Apc(Gua)][Che] (not fully specified (residue 4); printed as Occ-Sni-Phe-leu-Leu-Hyp-Nml-Asp-Apc(Gua)-Che; reading uncertain) [JAL-1685]
22 | ≤ 5 µM | [Occ][Sni]FLL[Hyp][NMeL]D[Apc(Gly)][Che] (not fully specified (residue 4); printed as Occ-Sni-Phe-leu-Leu-Hyp-Nml-Asp-Apc(Gly)-Che; reading uncertain) [JAL-1687]
23 | ≤ 1 µM | [Occ][Sni]FLL[Hyp][NMeL]VR[Che] (not fully specified (residue 4); printed as Occ-Sni-Phe-leu-Leu-Hyp-Nml-Val-Arg-Che; reading uncertain) [JAL-1730]
24 | ≤ 15 µM | [Occ][Sni]FLL[Hyp][NMeL]NR[Che] (not fully specified (residue 4); printed as Occ-Sni-Phe-leu-Leu-Hyp-Nml-Asn-Arg-Che; reading uncertain) [JAL-1751]
25 | ≤ 15 µM | [Occ][Sni]FLL[Hyp][NMeL][Nle]R[Che] (not fully specified (residue 4); printed as Occ-Sni-Phe-leu-Leu-Hyp-Nml-Nle-Arg-Che; reading uncertain) [JAL-1755]
26 | ≤ 5 µM | [Occ][Sni]FLL[Hyp][NMeL][d(β3hL)]R[Che] (not fully specified (residue 4); printed as Occ-Sni-Phe-leu-Leu-Hyp-Nml-Ble-Arg-Che; reading uncertain) [JAL-1756]
